Patent publication US20150344570A1 (published 2015)

T1: FcγRIIa R (FcγRIIa allotype with Arg at position 131), extracellular domain with C-terminal His tag (human, UniProt P12318 34-217)
T1 construct: extracellular domain; made in FreeStyle293 cells; analyte in the Biacore assay; also called FcγRIIa type R; 2aR
T1 sequence (looked up): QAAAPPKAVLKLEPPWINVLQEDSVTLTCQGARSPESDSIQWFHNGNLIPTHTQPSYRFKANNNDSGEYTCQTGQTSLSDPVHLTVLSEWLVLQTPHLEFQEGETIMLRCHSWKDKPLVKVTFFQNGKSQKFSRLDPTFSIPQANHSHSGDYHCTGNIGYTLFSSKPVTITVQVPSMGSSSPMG

T2: FcγRIIb, extracellular domain with C-terminal His tag (human, UniProt P31994 43-217)
T2 construct: extracellular domain; made in FreeStyle293 cells; analyte in the Biacore assay; also called 2b; FcgRIIb
T2 sequence (looked up): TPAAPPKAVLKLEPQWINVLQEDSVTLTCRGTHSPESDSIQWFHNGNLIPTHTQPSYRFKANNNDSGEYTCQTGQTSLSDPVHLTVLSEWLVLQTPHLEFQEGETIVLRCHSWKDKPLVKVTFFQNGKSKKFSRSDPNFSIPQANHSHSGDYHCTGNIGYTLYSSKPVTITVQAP


Assays:
[1] = target: T1, FcγRIIa R (FcγRIIa allotype with Arg at …); test: SPR (Biacore), antibody captured, FcγR analyte; vs GpH7-A5/GpH7-B3/GpL16-k0 = 100
Procedure: (§1) The heterodimerized antibodies He Abs in which one of the H chains was introduced with an alteration were assayed for their binding activities to each activating FcγR and inhibitory FcγR according to the method described in Example 4. […] The activating FcγRs in FIGS. 26, 27, 28, and 29 are FcγRIa, FcγRIIa (R), FcγRIIa (H), and FcγRIIIa, respectively.
(§2) Analysis of interaction between objective antibody and the FcγR was carried out using Biacore T100 (GE Healthcare). HBS-EP+ (GE Healthcare) was used as the running buffer, and the measurement temperature was set to 25° C. Chips produced by immobilizing the antigen peptide by the amine coupling method to a Series S Sencor Chip CM5 (GE Healthcare), or alternatively, chips produced by allowing preliminarily biotinylated antigen peptides to interact with and immobilize onto a Series S Sensor Chip SA (certified) (GE Healthcare) were used. Antibodies of interest were captured onto an antigen peptide-immobilized chip, and allowed to interact to each FcγR diluted with running buffer. To regenerate and repeatedly use the chip, the antibodies captured on the chip were washed off by reacting 10 mM glycine-HCl, pH 1.5.

[2] = target: T2, FcγRIIb, extracellular domain with …; test: as above
Procedure: as §1, §2

Row | Binder | He/Con_2aR [1] | He/Con_2b [2]
1 | GpH7-A5/GpH7-B3 variant A330_11K/GpL16-k0 (antibody, human IgG1, kappa, heterodimerized IgG1, mutation in one H chain only; also called He Ab) heavy 1: not shown heavy 2: not shown light: DIVMTQSPLSLPVTPGEPASISCQASESLVHSNRNTYLHWYLQKPGQSPQLLIYKVSNRFSGVPDRFSGSGSGTDFTLKISRVEAEDVGVYYCSQNTHVPPTFGQGTKVEIERTVAAPSVFIFPPSDEQLKSGTASVVCLLNNFYPREAKVQWKVDNALQSGNSQESVTEQDSKDSTYSLSSTLTLSKADYEKHKVYACEVTHQGLSSPVTKSFNRGEC | 110 relative (HeCon Ab = 100) | 95 relative (HeCon Ab = 100)
2 | GpH7-A5/GpH7-B3 variant E333_07I/GpL16-k0 (antibody, human IgG1, kappa, heterodimerized IgG1, mutation in one H chain only; also called He Ab) heavy 1: not shown heavy 2: not shown light: DIVMTQSPLSLPVTPGEPASISCQASESLVHSNRNTYLHWYLQKPGQSPQLLIYKVSNRFSGVPDRFSGSGSGTDFTLKISRVEAEDVGVYYCSQNTHVPPTFGQGTKVEIERTVAAPSVFIFPPSDEQLKSGTASVVCLLNNFYPREAKVQWKVDNALQSGNSQESVTEQDSKDSTYSLSSTLTLSKADYEKHKVYACEVTHQGLSSPVTKSFNRGEC | 104 relative (HeCon Ab = 100) | 96.2 relative (HeCon Ab = 100)
3 | GpH7-A5/GpH7-B3 variant E333_04F/GpL16-k0 (antibody, human IgG1, kappa, heterodimerized IgG1, mutation in one H chain only; also called He Ab) heavy 1: not shown heavy 2: not shown light: DIVMTQSPLSLPVTPGEPASISCQASESLVHSNRNTYLHWYLQKPGQSPQLLIYKVSNRFSGVPDRFSGSGSGTDFTLKISRVEAEDVGVYYCSQNTHVPPTFGQGTKVEIERTVAAPSVFIFPPSDEQLKSGTASVVCLLNNFYPREAKVQWKVDNALQSGNSQESVTEQDSKDSTYSLSSTLTLSKADYEKHKVYACEVTHQGLSSPVTKSFNRGEC | 102 relative (HeCon Ab = 100) | 94.6 relative (HeCon Ab = 100)
4 | GpH7-A5/GpH7-B3 variant A330_19Q/GpL16-k0 (antibody, human IgG1, kappa, heterodimerized IgG1, mutation in one H chain only; also called He Ab) heavy 1: not shown heavy 2: not shown light: DIVMTQSPLSLPVTPGEPASISCQASESLVHSNRNTYLHWYLQKPGQSPQLLIYKVSNRFSGVPDRFSGSGSGTDFTLKISRVEAEDVGVYYCSQNTHVPPTFGQGTKVEIERTVAAPSVFIFPPSDEQLKSGTASVVCLLNNFYPREAKVQWKVDNALQSGNSQESVTEQDSKDSTYSLSSTLTLSKADYEKHKVYACEVTHQGLSSPVTKSFNRGEC | 104 relative (HeCon Ab = 100) | 90.8 relative (HeCon Ab = 100)
5 | GpH7-A5/GpH7-B3 variant A330_12R/GpL16-k0 (antibody, human IgG1, kappa, heterodimerized IgG1, mutation in one H chain only; also called He Ab) heavy 1: not shown heavy 2: not shown light: DIVMTQSPLSLPVTPGEPASISCQASESLVHSNRNTYLHWYLQKPGQSPQLLIYKVSNRFSGVPDRFSGSGSGTDFTLKISRVEAEDVGVYYCSQNTHVPPTFGQGTKVEIERTVAAPSVFIFPPSDEQLKSGTASVVCLLNNFYPREAKVQWKVDNALQSGNSQESVTEQDSKDSTYSLSSTLTLSKADYEKHKVYACEVTHQGLSSPVTKSFNRGEC | 104 relative (HeCon Ab = 100) | 84.8 relative (HeCon Ab = 100)
6 | GpH7-A5/GpH7-B3 variant A330_15Y/GpL16-k0 (antibody, human IgG1, kappa, heterodimerized IgG1, mutation in one H chain only; also called He Ab) heavy 1: not shown heavy 2: not shown light: DIVMTQSPLSLPVTPGEPASISCQASESLVHSNRNTYLHWYLQKPGQSPQLLIYKVSNRFSGVPDRFSGSGSGTDFTLKISRVEAEDVGVYYCSQNTHVPPTFGQGTKVEIERTVAAPSVFIFPPSDEQLKSGTASVVCLLNNFYPREAKVQWKVDNALQSGNSQESVTEQDSKDSTYSLSSTLTLSKADYEKHKVYACEVTHQGLSSPVTKSFNRGEC | 102 relative (HeCon Ab = 100) | 95 relative (HeCon Ab = 100)

Continued, values first:

Row | He/Con_2aR [1] | He/Con_2b [2] | Binder
7 | 103 relative (HeCon Ab = 100) | 94.3 relative (HeCon Ab = 100) | GpH7-A5/GpH7-B3 variant E333_09D/GpL16-k0 (antibody, human IgG1, kappa, heterodimerized IgG1, mutation in one H chain only; also called He Ab) heavy 1: not shown heavy 2: not shown light: DIVMTQSPLSLPVTPGEPASISCQASESLVHSNRNTYLHWYLQKPGQSPQLLIYKVSNRFSGVPDRFSGSGSGTDFTLKISRVEAEDVGVYYCSQNTHVPPTFGQGTKVEIERTVAAPSVFIFPPSDEQLKSGTASVVCLLNNFYPREAKVQWKVDNALQSGNSQESVTEQDSKDSTYSLSSTLTLSKADYEKHKVYACEVTHQGLSSPVTKSFNRGEC
8 | 103 relative (HeCon Ab = 100) | 89.2 relative (HeCon Ab = 100) | GpH7-A5/GpH7-B3 variant K326_12R/GpL16-k0 (antibody, human IgG1, kappa, heterodimerized IgG1, mutation in one H chain only; also called He Ab) heavy 1: not shown heavy 2: not shown light: DIVMTQSPLSLPVTPGEPASISCQASESLVHSNRNTYLHWYLQKPGQSPQLLIYKVSNRFSGVPDRFSGSGSGTDFTLKISRVEAEDVGVYYCSQNTHVPPTFGQGTKVEIERTVAAPSVFIFPPSDEQLKSGTASVVCLLNNFYPREAKVQWKVDNALQSGNSQESVTEQDSKDSTYSLSSTLTLSKADYEKHKVYACEVTHQGLSSPVTKSFNRGEC
9 | 101 relative (HeCon Ab = 100) | 99.5 relative (HeCon Ab = 100) | GpH7-A5/GpH7-B3 variant N325_15Y/GpL16-k0 (antibody, human IgG1, kappa, heterodimerized IgG1, mutation in one H chain only; also called He Ab) heavy 1: not shown heavy 2: not shown light: DIVMTQSPLSLPVTPGEPASISCQASESLVHSNRNTYLHWYLQKPGQSPQLLIYKVSNRFSGVPDRFSGSGSGTDFTLKISRVEAEDVGVYYCSQNTHVPPTFGQGTKVEIERTVAAPSVFIFPPSDEQLKSGTASVVCLLNNFYPREAKVQWKVDNALQSGNSQESVTEQDSKDSTYSLSSTLTLSKADYEKHKVYACEVTHQGLSSPVTKSFNRGEC
